assay: soluble on expression in E. coli; label from the status in PepcDB or PDB records

| Sequence | soluble on expression in E. coli |
| --- | --- |
| MDVDLASVEVVFAQKLACGEPATRQRALRVLHDWIRDQSAKKHFDDADLMRLCKGLHYVMWMQDKMILQEELADRIGGLINIFTSEEEKVRFVACFLKSLSKEWPHIDRWRMDKFLMEVRRMVRACFTHLAELKWKKDIRDEYWKVFQETTISTDKSFNEALKFHFASILLDELDAAGGLTKKQVTACLKPYIELLGNKDISEYLFTSLYEEIFKTILQQKSDLITAVEEGEEMDQGGIEFSYKEIGALLFEVGKQEHLNAKRRKKIYDLVKKFDKSSRGQDPLHFETPVPKERLTRHDYEEAEKKAIVLANSFKQERKSSRKVKSQIKKRAREAAEAARQENGDDVPDDEIAEVKKGNGKKTAVPKVKKGRPLLKAKGVGKKRMVGGLKRKAGKKN | not soluble |
| MDVRELAIQQLKTVLDPELGINVVDLGLIYDLKIEDGHINVLMTLTTPGCPLHDSIAGGVKRALEQIDGVRDVRVQVTWNPPWTPERMSEEALRQLGHFS | not soluble |
| MDVSDSIDWSKMTLQKISVRIEGHATSVSLEQPFLDILKTIARKKGQSLAFIITDIDSKRPQQVNLSSSLRIYALQSVLIQRL | not soluble |
| MDWGTELWDQFEVLERHTQWGLDLLDRYVKFVKERTEVEQAYAKQLRSLVKKYLPKRPAKDDPESKFSQQQSFVQILQEVNDFAGQRELVAENLSVRVCLELTKYSQEMKQERKMHFQEGRRAQQQLENGFKQLENSKRKFERDCREAEKAAQTAERLDQDINATKADVEKAKQQAHLRSHMAEESKNEYAAQLQRFNRDQAHFYFSQMPQIFDKLQDMDERRATRLGAGYGLLSEAELEVVPIIAKCLEGMKVAANAVDPKNDSHVLIELHKSGFARPGDVEFEDFSQPMNRAPSDSSLGTPSDGRPELRGPGRSRTKRWPFGKKNKTVVTEDFSHLPPEQQRKRLQQQLEERSRELQKEVGQREALKKMKDVYEKTPQMGDSASLEPQIAETLSNIERLKLEVQKYEAWLAEAESRVLSNRGDSLSRHARPPDPPASAPPDSSSNSASQDTKESSEEPPSEESQDTPIYTEFDEDFEEEPTSPIGHCVAIYHFEGSSEGTISMAEGEDLSLMEEDKGDGWTRVRRKEGGEGYVPTSYLRVTLN | soluble |
| MDYEKTLLMPKTDFPMRGGLPNKEPQIQEKWDAEDQYHKALEKNKGNETFILHDGPPYANGNLHMGHALNKILKDFIVRYKTMQGFYAPYVPGWDTHGLPIEQALTKKGVDRKKMSTAEFREKCKEFALEQIELQKKDFRRLGVRGDFNDPYITLKPEYEAAQIRIFGEMADKGLIYKGKKPVYWSPSSESSLAEAEIEYHDKRSASIYVAFNVKDDKGVVDADAKFIIWTTTPWTIPSNVAITVHPELKYGQYNVNGEKYIIAEALSDAVAEALDWDKASIKLEKEYTGKELEWVVAQHPFLDRESLVINGDHVTTDAGTGCVHTAPGHGEDDYIVGQQYELPVISPIDDKGVFTEEGGQFEGMFYDKANKAVTDLLTEKGALLKLDFITHSYPHDWRTKKPVIFRATPQWFASISKVRQDILDAIENTNFKVNWGKTRIYNMVRDRGEWVISRQRVWGVPLPVFYAENGEIIMTKETVNHVADLFAEHGSNIWFEREAKDLLPEGFTHPGSPNGTFTKETDIMDVWFDSGSSHRGVLETRPELSFPADMYLEGSDQYRGWFNSSITTSVATRGVSPYKFLLSHGFVMDGEGKKMSKSLGNVIVPDQVVKQKGADIARLWVSSTDYLADVRISDEILKQTSDDYRKIRNTLRFMLGNINDFNPDTDSIPESELLEVDRYLLNRLREFTASTINNYENFDYLNIYQEVQNFINVELSNFYLDYGKDILYIEQRDSHIRRSMQTVLYQILVDMTKLLAPILVHTAEEVWSHTPHVKEESVHLADMPKVVEVDQALLDKWRTFMNLRDDVNRALETARNEKVIGKSLEAKVTIASNDKFNASEFLTSFDALHQLFIVSQVKVVDKLDDQATAYEHGDIVIEHADGEKCERCWNYSEDLGAVDELTHLCPRCQQVVKSLV | soluble |
| MDYFPVISVDLQSGRRVVSVEYFRGDGPPRIPYSMVGPCCVFLMHHRPSHEVRLRFSDFYNVGEFPYRVGLGDFASNVAPPPAKPFQRLIDLIGHMTLSDFTRFPNLKEAISWPLGEPSLAFFDLSSTRVHRNDDIRRDQIATLAMRSCKITNDLEDSFVGLHRMIATEAILRGIDLCLLPGFDLMYEVAHVQCVRLLQAAKEDISNAVVPNSALIVLMEESLMLRSSLPSMMGRNNWIPVIPPIPDVEMESEEESDDDGFVEVD | not soluble |
| MDYKVSVLIVCYNQEKYIKKALESVLSQKVNFNYEIVVCDDCSSDRTFNILQEYKSKLGSKLNLIRNYKNLGITLNYKNGFKNCKGEYIAVLEGDDYWIQKSKLKRQVSFLESNRDCSLVFNKIVLDYGDEKINNLIYPFNDIRKKFSARELVRSNFIQNFSCCMYRKSSIRKLRESIYDMVVYDWMFNMAVAQFGLIGYIPNYMTSHRILKSGLWSGKSKMENLQMISKCIDQYDSFFKYKYRKEFSQNKQEVLQALRRLVMVNENGLEHHHHHH | soluble |
| MDYRVLLYYKYVTIDDPETFAAEHLKFCKEHHLKGRILVSTEGINGTLSGTKEDTDKYIEHMHADNRFADLTFKIDEAESHAFKKMHVRPRREIVALDLEEDINPREITGKYYSPKEFKAALEDENTVILDARNDYEYDLGHFRGAIRPDITRFRDLPEWVRNNKEQLDGKNIVTYCTGGIRCEKFSGWLVKEGFENVGQLHGGIATYGKDPETKGQYWDGKMYVFDERISVDVNQIDKTVIGKEHFDGTPCERYINCANPECNKQILVSEENEEKYLGACSYDCAKHERNRYVARHHISNEEWQRRLNNFKDVPEHTHA | not soluble |
| MEAFIRSDQYNFIKSQAYILANGHATANDRGVIQALKSLAIEKIIHVFENLTDEQKELIDTVLTVQNREDAESFLTKINPYVIPFQEVTAQTLKKLFPKAKKLKLPDMEEMDMKEISYLSWVDKGSSRKFIIAKNDKNKFVGLQGTFQSLNKKSICSLCHGHEEVGMFLVEIKGDIPGTFVKKGNYICKDGVACNQNMKSLDKLQDFIERLKK | not soluble |
| MEAKQRIIPAIKTMKQFDAFLSSGYTVGVLLEVHIAQLKSIFAYARRHGKELIVHVDLVQGLSHDEHAAEYLCQEFRPHGLISTKAGVIMKARQKRVLAVQRIFLLDSHALEKSYQLIAKTNPDCIEVIPGAMPHIIREVKERTGKPIYAGGLIRTVDDVERALAAGAAAVTTSNETLWRHYNG | not soluble |
| MEASLYSRVGDKVVCQLCWRFCKLGDGEEGHCRVRRNEGGKIFTTTYGKLSHLESRPIEIKPFFHFLPGSTSMTFSTYSCNFDCPWCQNWSISKATPPEALRETSPEEVVDLALIMGDKSTCASLNEPTLLYEYLLDVFRLAREKGLKNTMVSNGYMSILALKNLKNAGLDAINIDVKGDERVYRDYCNAEVEYVWRVIEKATKLGIHVEVVCLLVSNVVDEEVVREIVREHLRRAGSSIPIHFTRYFPAYRFTAPPTRIEFLEWAVKHAYKEGAEFAYIGNVPGHRFENTHCPDCGELLIRRYSFSTVDNRIRSGCCPKCGREIYGVWV | not soluble |
| MEAYLKKLCFEYQVEEKEVKELLARMERVYLDKGETIASATMPEQSLYIIVSGILHTFTTQQGEDKTVRFLSEGDAILCYNTSKHSVKTLTRCVAYYISEDEIEELCATSITFSNLIRQMMEYQFYLKEEMSVNARKLTIRERYLSLLSEIPDILYRVPLKYITYYLGADVTSLGYLAGSCK | not soluble |
| MEDDMSVVDNIRFTFLYIEFYSMGRTWVYPESVIPYSIFRYIEKGKAELCIDGEEIIVEENQIVYIPQGCKMSCRALGESFEFYSLRFTTSVFYEGEDMLAEYYGIPRVSVNEGEDVYFKEIYKWVKKDSMVKKCFVRGNLDLLIGSLAMHGNKVDKVTGDFVETIEEKSLRDRNSKKNEQIDPRIYIVADYIILHPSEKYTPQKMAEMADLSKQRFSSLFKINMGKTPMEYVREIRLTTAARALLVSNDNINDIAYACGYEDTNYFIREFKSAFGFTPNQYRKVARE | not soluble |
| MEDELEKYKRENADLKKEIERLKNSSASNTYKVIFEASPDILIQLNADYKIIVIHIPNIEEERVNTVVGKDIFDVTPEYTHVKMKNALTSVFRDGEVVKYFSEGETMGSYRYYDNYLSPIKDAEGNITTVYFRSRDIT | not soluble |
| MEDKIGTTLTTRTVTGSLTPFIPIQDGDQLLVNGRSQDLYGWIYITELLDVINVYPLSLNNNSIVNFQPGTNIFFQLESSSYSSMRVPVARNVAIGKTTTLKGYVGLPDNAGIKFFDDSSIKK | not soluble |
| MEDKRLIREKILRNLNSIDKVEHRERSIKLAEKLFLLPEWENAKVVGITLARHPEIETEAIILQAKKEGKTILIPKTYYPSRKMEFKKMDSIHPLIKSKFGILEPNELAETVDKKVIDLLIVPGVAFNKDHYRIGFGGGFYDRFLTDFQGHTVSLYLYEQQIEFTPETHDEPVSILIGGLEHHHHHH | not soluble |
| MEDLLVVGQIINTHGLRGEMKVMPLTEDMRRFDYLEYVILKGKKVKVEGVKYFKDKVILKLEGINSIEEAEKLKRTYLEIEREDAIELEEDEYFIVDLVGCTVVDTEGFEYGKIKDVIQTPSNDVYWVQGKKEVLVPVLKDIVLDINMDEKLITIRPSGEWQYEDLEHHHHHH | not soluble |
| MEEGVNMDIRPTRIELIRTRRRIRLAKKGLDLLKMKRSALIYEFLQISRTIRGMKENLRKEVVEALNIIKVASVLEGSLALERIANMSSDSRINVNSRNVMGVNIPTLEVSYNLSILSDVYRTVSVPVAIDDSIRRFQKLFYDLILIVEKENSLRNLLMEIDRTKRRSNAIENILIPRLEYQAKMIKMTLDERERDTFTTLKTIKKKIEAENDLEHHHHHH | not soluble |
| MEEHPRAWIISVGNELLIGRTINTNAAWLGSRLTLLGFEVERVVTVPDRVEDIAEEVGRALGRARVVITTGGLGPTYDDVTLQGVAMALGRGLKLHPGALEMVRRFYSKRGLGLTEDRVKMAMLPDGAEPLENPVGAAPGAVVEARGSLVASLPGVPSEMEAMFEKALRPLLEEIAPPGAVVECGIAVVGVPESSLAPYIKEASRVSPRVYVKSHPQGSEIGKPLVR | not soluble |
| MEEKVEFILEVRSIPVYGDEFSPRLRKFFPIDYEPVERVTVPTSKKADYAVMISSNLKPFSIKEGDYILISLDDEPQEGDLVAVLVKDFRITVGRVKERQEDIFVVEVGNEVGIYRCFIFPYLDQLHRSSFELSFNPYVLGKITAILRKKPAH | soluble |
